The text below walks through data of patent publication US20110236309A1.

The target of assay [1] is TGF-β1 (Homo sapiens (Human)) (UniProt P01137).
Assay [2] concerns the target TGF-β2 (Homo sapiens (Human)) (UniProt P61812).
For assay [3], the target named is T1, TGF-β3 (Homo sapiens (Human)) (UniProt P10600).
T1 sequence: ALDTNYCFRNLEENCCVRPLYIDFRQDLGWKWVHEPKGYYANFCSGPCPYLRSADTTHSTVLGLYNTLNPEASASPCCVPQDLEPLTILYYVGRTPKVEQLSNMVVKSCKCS

Regarding “pan-specific TGF-β neutralizing antibody 1D11 (R&D Systems)”, in assay [1], the IC50 for TGF-β1 (neutralization, Mv1Lu luciferase reporter cells) was found to be 1.43 nM. In addition, the IC50 for TGF-β2 (neutralization, Mv1Lu luciferase reporter cells) in assay [2] worked out at 8.67 nM. For the same substance, the IC50 for TGF-β3 (neutralization, Mv1Lu luciferase reporter cells) in assay [3] is 0.029 nM.
